The record followed here is PMC9676404, “Three-dimensional structure of a mycobacterial oligoribonuclease reveals a unique C-terminal tail that stabilizes the homodimer” (The Journal of Biological Chemistry, 2022).

Broadly, the stoichiometry N is a count of units in the complex or per binding partner.

Data set [1] deals with Ms_ornΔC (C-terminal deletion mutant of Ms_orn lacking residues 186-209) (Mycobacterium smegmatis mc2155). The experiment in a line: not stated; oligomeric state of purified Ms_ornΔC, shown in Fig. S3.
Data set [2] concerns the target Orn of Mycobacterium smegmatis (MSMEG_4724, clone B) (Mycobacterium smegmatis mc2155). As to the kind of experiment: SEC; Superdex-75 column, Ms_orn with increasing concentrations of Gdm-HCl.
Data set [3] shares this target. As to the kind of experiment: SEC-MALS; Superdex-75 (10/300) with in-line MALLS and refractive index detectors, room temperature, 20 mM Tris-HCl pH 8.5, 100 mM NaCl, 5% glycerol, 0.5 ml/min; 200 ul of 3 mg/ml Ms_orn or 6 mg/ml Eco_orn. Background: In gel filtration, larger molecules generally elute earlier.
Data set [4] has the same target. The experiment in a line: SEC; Superdex-75 (10/300) column, 20 mM Tris-HCl pH 8.5, 100 mM NaCl; elution volume compared with molecular weight standards.
Data set [5] concerns the molecule itself. Described as above.

Turning to “Ms_ornΔC (C-terminal deletion mutant of Ms_orn lacking residues 186-209) (domain or fragment)”, the stoichiometry N in data set [1] was 2.

“Orn of Mycobacterium smegmatis (MSMEG_4724, clone B) (enzyme)”: the stoichiometry N in data set [2], in data set [3] and in data set [4] was 2 each time.

B1: Orn of Escherichia coli (enzyme, Escherichia coli K-12, UniProt P0A784 1-181, looked up)
chain: MSANENNLIWIDLEMTGLDPERDRIIEIATLVTDANLNILAEGPTIAVHQSDEQLALMDDWNVRTHTASGLVERVKASTMGDREAELATLEFLKQWVPAGKSPICGNSIGQDRRFLFKYMPELEAYFHYRYLDVSTLKELARRWKPEILDGFTKQGTHQAMDDIRESVAELAYYREHFIKL
notes: Oligoribonuclease (Orn) of Escherichia coli K-12; open reading frame of orn amplified from genomic DNA; residues 2-181 traced in the structure; also called oligoribonuclease; not shown: His10-Smt3, N-terminal, cleaved
B1: the “stoichiometry N” value in data set [5] was determined as 2.
